# Reference: US20180237536A1 (INNATE PHARMA, published 2018)
# T1: recombinant human CD73-His extracellular domain protein (soluble dimer) (human, UniProt P21589 27-547)
# T1 sequence: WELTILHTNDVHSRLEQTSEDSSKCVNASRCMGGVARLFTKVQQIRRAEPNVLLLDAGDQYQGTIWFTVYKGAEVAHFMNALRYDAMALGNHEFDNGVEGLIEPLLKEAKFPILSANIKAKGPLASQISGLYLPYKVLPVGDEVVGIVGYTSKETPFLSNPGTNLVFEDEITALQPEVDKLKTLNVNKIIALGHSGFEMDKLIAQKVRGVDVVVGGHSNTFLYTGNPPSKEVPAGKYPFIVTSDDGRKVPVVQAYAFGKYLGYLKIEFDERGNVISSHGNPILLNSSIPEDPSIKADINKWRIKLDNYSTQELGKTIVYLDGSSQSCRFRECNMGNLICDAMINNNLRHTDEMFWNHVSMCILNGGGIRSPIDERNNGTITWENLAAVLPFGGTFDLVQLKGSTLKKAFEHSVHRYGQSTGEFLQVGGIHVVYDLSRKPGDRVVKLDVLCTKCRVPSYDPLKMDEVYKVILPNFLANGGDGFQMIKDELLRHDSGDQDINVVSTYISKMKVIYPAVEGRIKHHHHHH
# T2: human CD73 expressed at the cell surface (human, UniProt P21589 27-549)
# T2 sequence: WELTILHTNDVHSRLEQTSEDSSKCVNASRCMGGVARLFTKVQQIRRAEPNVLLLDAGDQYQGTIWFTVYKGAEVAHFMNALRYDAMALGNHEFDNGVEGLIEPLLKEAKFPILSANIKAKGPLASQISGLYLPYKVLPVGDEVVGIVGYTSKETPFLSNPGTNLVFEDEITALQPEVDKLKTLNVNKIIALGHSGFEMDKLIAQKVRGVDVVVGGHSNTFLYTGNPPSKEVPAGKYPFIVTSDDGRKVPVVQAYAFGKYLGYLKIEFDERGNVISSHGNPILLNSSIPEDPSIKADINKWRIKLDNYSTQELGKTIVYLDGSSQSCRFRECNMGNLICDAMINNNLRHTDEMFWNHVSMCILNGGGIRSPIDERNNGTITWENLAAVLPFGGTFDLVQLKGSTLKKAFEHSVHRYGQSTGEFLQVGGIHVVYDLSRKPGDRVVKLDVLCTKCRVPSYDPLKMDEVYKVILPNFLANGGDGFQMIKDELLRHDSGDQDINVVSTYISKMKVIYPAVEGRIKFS
# T3: human CD73 mutant 3 (human, UniProt P21589 27-549)
# T3 construct: Expressed on transfected HEK293T cells
# T3 chain: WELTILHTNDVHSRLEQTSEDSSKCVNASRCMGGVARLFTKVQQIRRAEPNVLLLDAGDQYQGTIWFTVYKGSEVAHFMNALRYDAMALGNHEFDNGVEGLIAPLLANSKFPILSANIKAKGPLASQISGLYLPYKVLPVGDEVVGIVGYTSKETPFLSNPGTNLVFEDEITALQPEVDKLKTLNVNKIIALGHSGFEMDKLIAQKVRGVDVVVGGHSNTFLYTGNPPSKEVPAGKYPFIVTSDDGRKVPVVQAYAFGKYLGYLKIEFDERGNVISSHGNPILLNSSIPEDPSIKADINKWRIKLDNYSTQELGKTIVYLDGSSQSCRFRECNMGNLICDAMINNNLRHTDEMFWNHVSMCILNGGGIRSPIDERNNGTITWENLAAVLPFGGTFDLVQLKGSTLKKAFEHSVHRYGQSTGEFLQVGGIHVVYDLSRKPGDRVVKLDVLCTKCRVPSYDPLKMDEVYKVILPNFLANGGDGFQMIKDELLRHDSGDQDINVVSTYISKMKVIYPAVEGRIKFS
# Assays:
# [1] = target: T1, recombinant human CD73-His …; experiment: cell-based or functional assay
# [2] = target: T2, human CD73 expressed at the cell surface; experiment: cell-based or functional assay
# [3] = target: T2, human CD73 expressed at the cell surface; experiment: cell-based or functional assay; remark: listed apart in the source
# [4] = target: T2, human CD73 expressed at the cell surface; experiment: flow cytometry titration on human CD73-expressing recombinant host cells, PE secondary, median of fluorescence
# Procedure: MDA-MB-231 cells are available from ATCC (reference HTB-26). 10⁵ cells resuspended in PBS/0.2% BSA/0.02% NaN3 (named “staining buffer”) are distributed into round bottom 96W-microplates. Dose-range of anti-CD73 antibodies was added to the plates and cells are incubated for 45 min at 4° C. Cells were washed three times in staining buffer by spinning plates at 400 g for 3 min at 4° C. PE-coupled goat anti-mouse or goat anti-human IgG Fc fragment secondary antibodies (Beckman Coulter) diluted in staining buffer were added to the cells and plates are incubated for 30 additional minutes at 4° C. Cells were washed three times as described above and analyzed on an Accury C6 flow cytometer equipped with an HTFC plate reader.
# Median of fluorescence vs. antibodies concentration was plotted on graphs and EC50 is calculated using GraphPad Prism program.
# [5] = target: T4, cynomolgus CD73 expressed on recombinant host cells (cynomolgus); experiment: flow cytometry titration on cynomolgus CD73-expressing recombinant host cells, PE secondary, median of fluorescence
# T4 construct: whole, on cells; also called cynoCD73
# human CD73 mutant 3 = target: T3, human CD73 mutant 3; experiment: flow cytometry on transfected HEK293T cells
# Procedure: CD73 mutants are generated by PCR. The sequences amplified are run on agarose gel and purified using the Macherey Nagel PCR Clean-Up Gel Extraction kit (reference 740609). The purified PCR products generated for each mutant are then ligated into an expression vector, with the ClonTech InFusion system. The vectors containing the mutated sequences are prepared as Miniprep and sequenced. After sequencing, the vectors containing the mutated sequences are prepared as Midiprep using the Promega PureYield™ Plasmid Midiprep System. HEK293T cells are grown in DMEM medium (Invitrogen), transfected with vectors using Invitrogen's Lipofectamine 2000 and incubated at 37° C. in a CO2 incubator for 24 hours prior to testing for transgene expression
# Anti-CD73 antibodies are tested for their binding to each mutant by flow cytometry. A first experiment is performed to determine antibodies that lose their binding to one or several mutants at one concentration. To confirm a loss of binding, titration of antibodies is done on antibodies for which binding seemed to be affected by the CD73 mutations (1-0.1-0.01-0.001 μg/ml). Antibodies 11E1, 8C7, 3C12 or 6E1 lost binding to mutant 3 of CD73, but not to any other mutant. […] Antibody 7G2 lost binding to mutants 5, 6 and 7 (but not mutants 2 or 3).
Binder,"EC50 for CD73 blockade (enzymatic activity of soluble recombinant CD73-his, Cell Titer Glo) [1] [mg/L]","EC50 for neutralization of enzymatic activity of cellular CD73 (MDA-MB-231, free phosphate from AMP) [2] [mg/L]","EC50 for neutralization of cellular CD73 enzymatic activity (mean over MDA-MB-231, H292, A375) [3] [mg/L]","EC70 for neutralization of cellular CD73 enzymatic activity (mean over MDA-MB-231, H292, A375) [3] [mg/L]","EC100 for neutralization of cellular CD73 enzymatic activity (mean over MDA-MB-231, H292, A375) [3] [µg/mL]",EC50 (read off the curve) [4] [mg/L],EC50 (read off the curve) [5] [mg/L],binding result (human CD73 mutant 3)
"antibody 11E1 (antibody, human IgG1, V domains shown, also called 1E11) VH: EIQLQQSGPELVKPGASVKVSCKASGYAFTSYNMYWVKQSHGKSLEWIGYIDPYNGGTSYNQKFKGKATLTVDKSSSTAYMHLNSLTSEDSAVYYCARGYGNYKAWFAYWGQGTLVTVSA VL: DAVMTQTPKFLLVSAGDRVTITCKASQSVTNDVAWYQQKPGQSPKLLIYYASNRYTGVPDRFTGSGYGTDFTFTISTVQAEDLAVYFCQQDYSSLTFGAGTKLELK",0.41,0.195,0.1,0.15,0.52,~0.5,~0.5,
"antibody 8C7 (antibody, human IgG1, V domains shown) VH: EVQLQQSGPELVKPGASVKVSCKASGYAFASYNMNWVKQSHGKSLDWIGYIDPYNGGSSYNLTFKGKATLTVDKSSTTAYMHLNSLTSEDSAVYYCARGYGNYKAWFAYWGQGTLVTVSA VL: SIVMTPTPKFLLVSAGDRVTITCKASQSVSNDVAWYQQKPGQSPKLLIYYASTRYTGVPDRFTGSGYGTDFTFTISTVQAEDLAVYFCQQDYSSLTFGAGTKLELKR",1.29,0.319,0.21,0.46,0.72,,,no binding (tested: 1-0.1-0.01-0.001 µg/ml)
"antibody 6E1 (antibody, human IgG1, V domains shown) VH: EFQLQQSGPELVKPGASVKVSCKASGYAFTSYNMYWVKQSHGKRLEWIGYIDPYNGGSSYNQKFKGKATLTVDKSSSTAYMHLNNLTSEDSAVYYCARGYNNYKAWFAYWGQGTLVTVSA VL: SIVMTQTPKFLLVSAGDRVTITCKASQSVTNDVAWYQQKPGQSPKLLIYYASNRYTGVPDRFTGSGYGTDFTFTISTMQAEDLAVYFCQQDYSSLTFGAGTKLELK",0.33,0.209,0.13,0.19,0.68,~0.5,,
"antibody 3C12 (antibody, human IgG1, V domains shown) VH: QIQLQQSGPELVKPGASVKVSCKASGYAFASYNMNWVKQSHGKSLDWIGYIDPYNGGSSYNLTFKGKATLTVDKSSTTAYMHLNSLTSEDSAVYYCARGYGNYKAWFAYWGQGTLVTVSA VL: DVVMTQTPKFLLVSAGDRVTITCKASQSVSNDVAWYQQKPGQSPKLLIYYASTRYTGVPDRFTGSGYGTDFTFTISTVQAEDLAVYFCQQDYSSLTFGAGTKLELKR",0.41,0.21,0.14,0.18,0.3,,,
